Legend:
Assay in all cases: cell-based or functional assay
[1] = target: HIV-1 MGRM-A-010 Env (HIV-1)
[2] = target: HIV-1 94KE105 Env (HIV-1)
[3] = target: HIV-1 93RW029 Env (HIV-1)
[4] = target: HIV-1 MGRM-A-002 Env (HIV-1)
[5] = target: HIV-1 92RW024 Env (HIV-1)
[6] = target: HIV-1 MGRM-A-005 Env (HIV-1)
[7] = target: HIV-1 MGRM-A-013 Env (HIV-1)
[8] = target: HIV-1 94UG103 Env (HIV-1)
[9] = target: HIV-1 MGRM-A-006 Env (HIV-1)
[10] = target: HIV-1 92RW021 Env (HIV-1)
[11] = target: HIV-1 92UG037 Env (HIV-1)
[12] = target: HIV-1 MGRM-A-011 Env (HIV-1)
[13] = target: HIV-1 MGRM-A-014 Env (HIV-1)
[14] = target: HIV-1 92RW009 Env (HIV-1)
[15] = target: HIV-1 92RW008 Env (HIV-1)
[16] = target: HIV-1 92RW026 Env (HIV-1)
[17] = target: HIV-1 MGRM-A-001 Env (HIV-1)
[18] = target: HIV-1 93UG077 Env (HIV-1)
[19] = target: HIV-1 92RW020 Env (HIV-1)
HIV-1 VLGCA1 Env (HIV-1) = target: HIV-1 VLGCA1 Env (HIV-1)
[20] = target: HIV-1 MGRM-A-003 Env (HIV-1)
[21] = target: HIV-1 MGRM-F1-013 Env (HIV-1)

## 1495_C14 (PGC14) (antibody)
[1]
  neutralization IC50: > 50 µg/mL
[2]
  neutralization IC50: > 50 µg/mL
[3]
  neutralization IC50: 42 µg/mL
[4]
  neutralization IC50: > 50 µg/mL
[5]
  neutralization IC50: > 50 µg/mL
[6]
  neutralization IC50: > 50 µg/mL
[7]
  neutralization IC50: > 50 µg/mL
[8]
  neutralization IC50: > 50 µg/mL
[9]
  neutralization IC50: > 50 µg/mL
[10]
  neutralization IC50: > 50 µg/mL
[11]
  neutralization IC50: > 50 µg/mL
[12]
  neutralization IC50: > 50 µg/mL
[13]
  neutralization IC50: > 50 µg/mL
[14]
  neutralization IC50: > 50 µg/mL
[15]
  neutralization IC50: 37 µg/mL
[16]
  neutralization IC50: > 50 µg/mL
[17]
  neutralization IC50: > 50 µg/mL
[18]
  neutralization IC50: > 50 µg/mL
[19]
  neutralization IC50: 46 µg/mL
HIV-1 VLGCA1 Env (HIV-1)
  neutralization IC50: > 50 µg/mL
[20]
  neutralization IC50: > 50 µg/mL
[21]
  IC50 (pseudovirus neutralization): 6 µg/mL

## b12 (antibody)
[1]
  neutralization IC50: > 50 µg/mL
[2]
  neutralization IC50: > 50 µg/mL
[3]
  neutralization IC50: > 50 µg/mL
[4]
  neutralization IC50: > 50 µg/mL
[5]
  neutralization IC50: > 50 µg/mL
[6]
  neutralization IC50: 3.64 µg/mL
[7]
  neutralization IC50: 7.04 µg/mL
[8]
  neutralization IC50: 6.92 µg/mL
[9]
  neutralization IC50: 13.6 µg/mL
[10]
  neutralization IC50: > 50 µg/mL
[11]
  neutralization IC50: > 50 µg/mL
[12]
  neutralization IC50: 4.01 µg/mL
[13]
  neutralization IC50: > 50 µg/mL
[14]
  neutralization IC50: > 50 µg/mL
[15]
  neutralization IC50: 9.46 µg/mL
[16]
  neutralization IC50: > 50 µg/mL
[17]
  neutralization IC50: > 50 µg/mL
[18]
  neutralization IC50: 47 µg/mL
[19]
  neutralization IC50: > 50 µg/mL
HIV-1 VLGCA1 Env (HIV-1)
  neutralization IC50: > 50 µg/mL
[20]
  neutralization IC50: > 50 µg/mL
[21]
  IC50 (pseudovirus neutralization): > 50 µg/mL

Source: patent US20160264649A1
